Common to all, as to experiment: SPR; KD relative to WT C2;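 also: biacore SPR at 37 °C, anti-C2 mAbs captured on an anti-human IgG chip, alanine or serine C2 surface mutants tested, KD from 1:1 fit compared with wild-type C2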
(In general: Surface plasmon resonance follows binding to a sensor surface in real time, without labels.)

One assay concerns the target T1, human C2 K329A (human, UniProt P06681 21-752).
T1 sequence: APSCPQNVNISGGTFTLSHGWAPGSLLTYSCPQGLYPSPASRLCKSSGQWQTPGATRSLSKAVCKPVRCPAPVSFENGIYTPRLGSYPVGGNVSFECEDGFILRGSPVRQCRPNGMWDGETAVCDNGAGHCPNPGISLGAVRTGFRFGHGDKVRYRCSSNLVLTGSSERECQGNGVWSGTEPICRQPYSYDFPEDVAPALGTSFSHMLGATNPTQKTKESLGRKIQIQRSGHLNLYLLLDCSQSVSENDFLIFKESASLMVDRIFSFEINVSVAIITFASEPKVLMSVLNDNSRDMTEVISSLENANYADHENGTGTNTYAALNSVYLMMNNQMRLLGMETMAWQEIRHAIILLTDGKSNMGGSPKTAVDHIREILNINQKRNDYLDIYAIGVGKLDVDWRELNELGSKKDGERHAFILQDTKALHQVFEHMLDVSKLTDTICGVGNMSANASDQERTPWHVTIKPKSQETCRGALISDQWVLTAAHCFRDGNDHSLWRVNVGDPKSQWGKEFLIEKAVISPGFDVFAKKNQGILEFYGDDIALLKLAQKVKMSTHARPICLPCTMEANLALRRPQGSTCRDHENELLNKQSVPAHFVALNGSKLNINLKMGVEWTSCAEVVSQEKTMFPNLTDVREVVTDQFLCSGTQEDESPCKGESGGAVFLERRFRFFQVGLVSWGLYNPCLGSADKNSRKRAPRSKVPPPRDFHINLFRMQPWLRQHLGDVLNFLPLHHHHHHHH

Another assay concerns the target T2, human C2 D419A (human, UniProt P06681 21-752).
T2 sequence: T1 sequence with A309K, D399A

The target in a further assay is T3, human C2 D441A (human, UniProt P06681 21-752).
T3 sequence: T1 sequence with A309K, D421A

In the next assay the target is T4, human C2 M452A (human, UniProt P06681 21-752).
T4 sequence: T1 sequence with A309K, M432A

Data on one molecule can be found in patent US20220332804A1 (CSL INNOVATION, published 2022).

Changes are numbered by the printed parent chain.

B1: RF16-214 (antibody, V domains shown)
VH: EVQLLESGGGLVQPGGSLRLSCAASGFTFSWYQMMWVRQAPGKGLEWVSRIYPSGGGTAYADSVKGRFTISRDNSKNTLYLQMNSLRAEDTAVYYCARDAGYGDNWGQGTLVTVSS
VL: QSALTQPPSVSVSPGQTASITCSGDKLGEKYASWYQQKAGQSPVMVIYQDRKRPSGIPERFSGSNSGNTATLTISGTQAMDEADYYCQAWDTRAVVFGGGTKLTVLG
For the molecule B1, the Fold diff turned out to be 2 fold with human C2 K329A, 2 fold with human C2 D419A, 2 fold in the assay with human C2 D441A and 1 fold with human C2 M452A.
